Source: PMC5399293, “Hierarchical assembly of centriole subdistal appendages via centrosome binding proteins CCDC120 and CCDC68” (Nature Communications, 2017)

Molecular target: T1, MBP-hNinein-N (1–480 aa) (human, UniProt Q8N4C6 1-480)
T1 construct: human Ninein residues 1-480; also called purified 1–480 aa of hNinein
T1 sequence (looked up): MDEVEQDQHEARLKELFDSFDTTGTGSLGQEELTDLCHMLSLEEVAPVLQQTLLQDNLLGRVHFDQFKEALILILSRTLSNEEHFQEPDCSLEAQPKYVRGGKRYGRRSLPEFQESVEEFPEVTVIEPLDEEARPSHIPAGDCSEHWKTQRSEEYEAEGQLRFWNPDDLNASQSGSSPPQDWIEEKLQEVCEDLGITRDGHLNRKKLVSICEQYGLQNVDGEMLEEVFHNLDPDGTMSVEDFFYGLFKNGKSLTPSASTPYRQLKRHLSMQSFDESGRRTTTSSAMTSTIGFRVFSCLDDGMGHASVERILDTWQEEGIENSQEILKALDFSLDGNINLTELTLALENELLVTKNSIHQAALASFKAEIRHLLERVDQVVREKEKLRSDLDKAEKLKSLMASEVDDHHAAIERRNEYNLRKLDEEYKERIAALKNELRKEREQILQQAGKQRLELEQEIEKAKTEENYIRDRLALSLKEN
Experiment: pull-down; in vitro binding: purified GST-CCDC120 (1–320 aa) incubated with amylose resin beads coated with MBP fusions, 4 °C; immunoblot with anti-GST
Settings: both partners purified

B1: GST-tagged CCDC120 (1–320 aa) (domain or fragment, human, UniProt Q96HB5-1 1-320, looked up)
chain: MEVKGQLISSPTFNAPAALFGEAAPQVKSERLRGLLDRQRTLQEALSLKLQELRKVCLQEAELTGQLPPECPLEPGERPQLVRRRPPTARAYPPPHPNQAHHSLCPAEELALEALEREVSVQQQIAAAARRLALAPDLSTEQRRRRRQVQADALRRLHELEEQLRDVRARLGLPVLPLPQPLPLSTGSVITTQGVCLGMRLAQLSQEDVVLHSESSSLSESGASHDNEEPHGCFSLAERPSPPKAWDQLRAVSGGSPERRTPWKPPPSDLYGDLKSRRNSVASPTSPTRSLPRSASSFEGRSVPATPVLTRGAGPQLCKP
notes: human CCDC120 (NM_001271836.1) residues 1-320; also called GST-CCDC120 (1–320 aa); 1–320 aa of CCDC120
  binding result: binds
